Reference: patent US20180362585A1 (Bicycle, published 2018)
Read-outs that look alike come from different tables or passages of the source. Numbered stars: 1 amine (or outer) side, 2 acyl side, 3 side chain; on linkers, the order of the positions; unused ones are H or OH. Bridge positions count the residues as written; N and C are the ends. Ends that are not written are not given here. TBMB = c1c(C[*:1])cc(C[*:3])cc1C[*:2]

B1: Ac-(06-34-18) Scram1 (peptide)
peptide: Ac-CPSAWRCLHQDLC-NH2
modifications: linker 1-7-13 via TBMB
SMILES: CC(=O)N[C@H]1CSCc2cc3cc(c2)CSC[C@H](NC(=O)[C@H](CCCNC(=N)N)NC(=O)[C@H](Cc2c[nH]c4ccccc24)NC(=O)[C@H](C)NC(=O)[C@H](CO)NC(=O)[C@@H]2CCCN2C1=O)C(=O)N[C@@H](CC(C)C)C(=O)N[C@@H](Cc1c[nH]cn1)C(=O)N[C@@H](CCC(N)=O)C(=O)N[C@@H](CC(=O)O)C(=O)N[C@@H](CC(C)C)C(=O)N[C@H](C(N)=O)CSC3
B2: 06-34-04 (peptide)
peptide: ACRWPARCMHQDLCA
modifications: linker 2-8-14 via TBMB; not fully specified (N-terminus, C-terminus)
B3: 06-34-17 (01 + 04) (peptide)
peptide: ACSWPARCMHQDLCA
modifications: linker 2-8-14 via TBMB; not fully specified (N-terminus, C-terminus)
B4: 06-34-18 (01 + 05) (peptide)
peptide: ACSWPARCLHQDLCA
modifications: linker 2-8-14 via TBMB; not fully specified (N-terminus, C-terminus)
B5: 06-34-05 (peptide)
peptide: ACRWPARCLHQDLCA
modifications: linker 2-8-14 via TBMB; not fully specified (N-terminus, C-terminus)
B6: Ac-(06-34-18) Scram3 (peptide)
peptide: Ac-CAPWSRCLHQDLC-NH2
modifications: linker 1-7-13 via TBMB
SMILES: CC(=O)N[C@H]1CSCc2cc3cc(c2)CSC[C@H](NC(=O)[C@H](CCCNC(=N)N)NC(=O)[C@H](CO)NC(=O)[C@H](Cc2c[nH]c4ccccc24)NC(=O)[C@@H]2CCCN2C(=O)[C@H](C)NC1=O)C(=O)N[C@@H](CC(C)C)C(=O)N[C@@H](Cc1c[nH]cn1)C(=O)N[C@@H](CCC(N)=O)C(=O)N[C@@H](CC(=O)O)C(=O)N[C@@H](CC(C)C)C(=O)N[C@H](C(N)=O)CSC3
B7: Ac-(06-34-18) Phe2 Tyr4 Thr7 Thr8 Glu9 (peptide)
peptide: Ac-CSFPYRCLTTELC-NH2
modifications: linker 1-7-13 via TBMB
SMILES: CC(=O)N[C@H]1CSCc2cc3cc(c2)CSC[C@H](NC(=O)[C@H](CCCNC(=N)N)NC(=O)[C@H](Cc2ccc(O)cc2)NC(=O)[C@@H]2CCCN2C(=O)[C@H](Cc2ccccc2)NC(=O)[C@H](CO)NC1=O)C(=O)N[C@@H](CC(C)C)C(=O)N[C@@H]([C@@H](C)O)C(=O)N[C@@H]([C@@H](C)O)C(=O)N[C@@H](CCC(=O)O)C(=O)N[C@@H](CC(C)C)C(=O)N[C@H](C(N)=O)CSC3
notes: also called loop 2 LTTEL
B8: Ac-(06-34-18) Scram4 (peptide)
peptide: Ac-CWARSPCLHQDLC-NH2
modifications: linker 1-7-13 via TBMB
SMILES: CC(=O)N[C@H]1CSCc2cc3cc(c2)CSC[C@H](NC(=O)[C@@H]2CCCN2C(=O)[C@H](CO)NC(=O)[C@H](CCCNC(=N)N)NC(=O)[C@H](C)NC(=O)[C@H](Cc2c[nH]c4ccccc24)NC1=O)C(=O)N[C@@H](CC(C)C)C(=O)N[C@@H](Cc1c[nH]cn1)C(=O)N[C@@H](CCC(N)=O)C(=O)N[C@@H](CC(=O)O)C(=O)N[C@@H](CC(C)C)C(=O)N[C@H](C(N)=O)CSC3
B9: Ac-(06-34-18) Scram2 (peptide)
peptide: Ac-CWASPRCLHQDLC-NH2
modifications: linker 1-7-13 via TBMB
SMILES: CC(=O)N[C@H]1CSCc2cc3cc(c2)CSC[C@H](NC(=O)[C@H](CCCNC(=N)N)NC(=O)[C@@H]2CCCN2C(=O)[C@H](CO)NC(=O)[C@H](C)NC(=O)[C@H](Cc2c[nH]c4ccccc24)NC1=O)C(=O)N[C@@H](CC(C)C)C(=O)N[C@@H](Cc1c[nH]cn1)C(=O)N[C@@H](CCC(N)=O)C(=O)N[C@@H](CC(=O)O)C(=O)N[C@@H](CC(C)C)C(=O)N[C@H](C(N)=O)CSC3
B10: Ac-(06-34-18) A2A3 (peptide)
peptide: Ac-CSAAARCLHQDLC-NH2
modifications: linker 1-7-13 via TBMB
SMILES: CC(=O)N[C@H]1CSCc2cc3cc(c2)CSC[C@H](NC(=O)[C@H](CCCNC(=N)N)NC(=O)[C@H](C)NC(=O)[C@H](C)NC(=O)[C@H](C)NC(=O)[C@H](CO)NC1=O)C(=O)N[C@@H](CC(C)C)C(=O)N[C@@H](Cc1c[nH]cn1)C(=O)N[C@@H](CCC(N)=O)C(=O)N[C@@H](CC(=O)O)C(=O)N[C@@H](CC(C)C)C(=O)N[C@H](C(N)=O)CSC3
B11: Ac-(06-34-18) A2Q3 (peptide)
peptide: Ac-CSAQARCLHQDLC-NH2
modifications: linker 1-7-13 via TBMB
SMILES: CC(=O)N[C@H]1CSCc2cc3cc(c2)CSC[C@H](NC(=O)[C@H](CCCNC(=N)N)NC(=O)[C@H](C)NC(=O)[C@H](CCC(N)=O)NC(=O)[C@H](C)NC(=O)[C@H](CO)NC1=O)C(=O)N[C@@H](CC(C)C)C(=O)N[C@@H](Cc1c[nH]cn1)C(=O)N[C@@H](CCC(N)=O)C(=O)N[C@@H](CC(=O)O)C(=O)N[C@@H](CC(C)C)C(=O)N[C@H](C(N)=O)CSC3

What was measured:
[1] = target: T1, human plasma Kallikrein (human, UniProt P03952 20-638); experiment: enzyme inhibition
T1 construct: also called hPK; human PK
T1 sequence (P03952 20-638 limits assumed): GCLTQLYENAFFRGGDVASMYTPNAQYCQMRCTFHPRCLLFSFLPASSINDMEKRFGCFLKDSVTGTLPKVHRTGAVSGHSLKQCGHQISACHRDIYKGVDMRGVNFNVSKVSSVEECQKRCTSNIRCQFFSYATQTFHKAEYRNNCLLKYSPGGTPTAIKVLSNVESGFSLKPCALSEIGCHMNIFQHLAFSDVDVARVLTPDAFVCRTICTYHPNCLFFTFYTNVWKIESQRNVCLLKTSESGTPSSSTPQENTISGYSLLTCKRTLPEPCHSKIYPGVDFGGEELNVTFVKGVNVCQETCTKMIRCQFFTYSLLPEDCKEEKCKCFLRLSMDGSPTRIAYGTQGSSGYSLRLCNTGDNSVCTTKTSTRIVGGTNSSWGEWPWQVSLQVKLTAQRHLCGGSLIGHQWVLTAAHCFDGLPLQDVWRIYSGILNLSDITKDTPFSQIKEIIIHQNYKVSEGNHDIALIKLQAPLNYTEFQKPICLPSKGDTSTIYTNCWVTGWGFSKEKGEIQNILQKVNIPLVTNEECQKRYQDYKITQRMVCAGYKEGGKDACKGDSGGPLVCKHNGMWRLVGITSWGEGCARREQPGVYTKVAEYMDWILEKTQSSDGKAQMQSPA
Description: (§1) Functional enzyme assays were conducted in 10 mM Tris HCl, 150 mM NaCl, 10 mM MgCl2, 1 mM CaCl₂) and 1 mg/mL BSA (all Sigma UK) pH7.4 at 25° C. in solid black 96 well plates. […] Release of AMC was measured using a Pherastar FS (BMG Labtech), excitation 360 nm, emission 460 nm. The rate of the linear phase of the reaction, typically 5 to 45 minutes, was calculated in MARS data analysis software (BMG labtech). The rate was then used to calculate the IC50 and Ki in Prism (GraphPad).
Crucially, such modifications should not affect the potency against human or rat Kallikrein. An initial exploration regarding the role of the WPAR (SEQ ID No. 19) sequence/pharmacophore (FIG. 9, 10) was performed by replacing W₂P₃ with A₂A₃ or A₂Q₃ and by scrambling parts or the entire first loop of the bicycle.

[2] = target: T1, human plasma Kallikrein; experiment: enzyme inhibition; remark: listed apart in the source
Description: as §1

[3] = target: T2, rat plasma Kallikrein (rat, UniProt P14272 391-638, limits assumed); experiment: enzyme inhibition
T2 construct: domain: catalytic domain; also called rPK; rat PK
T2 sequence (P14272 391-638 limits assumed): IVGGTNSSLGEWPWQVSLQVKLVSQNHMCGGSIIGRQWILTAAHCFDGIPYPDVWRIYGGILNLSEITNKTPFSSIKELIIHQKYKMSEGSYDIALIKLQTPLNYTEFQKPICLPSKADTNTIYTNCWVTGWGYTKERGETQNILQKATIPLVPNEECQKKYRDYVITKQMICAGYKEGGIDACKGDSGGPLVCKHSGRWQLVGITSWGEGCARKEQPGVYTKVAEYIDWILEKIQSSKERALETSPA
Description: as §1

[4] = target: T1, human plasma Kallikrein; experiment: enzyme inhibition; ref WT
Description: as §1

Row | Binder | Ki [1] [nM] | IC50 [2] [nM] | IC50 [3] [nM] | other results
1 | B1 | 1090 |  |  | 
2 | B2 |  | 0.075 | 0.56 | 
3 | B3 |  | 0.073 | 0.44 | 
4 | B4 |  | 0.07 | 0.56 | Ki [2]: 0.04 nM
5 | B5 |  | 0.076 | 0.62 | 
6 | B6 | 1890 |  |  | 
7 | B7 |  |  |  | Ki [2]: 81 nM; F (Kivar/KiWT) [4]: 193 fold
8 | B8 | 67500 |  |  | 
9 | B9 | 11400 |  |  | 
10 | B10 | 18500 |  |  | fold reduction in binding vs wildtype [2]: ~100000 fold
11 | B11 | 15800 |  |  | fold reduction in binding vs wildtype [2]: ~100000 fold
